From PMC6330308, “Light-Induced Thiol Oxidation of Recoverin Affects Rhodopsin Desensitization” (Frontiers in Molecular Neuroscience, 2018)
Where a chain is given by its changes, count along the chain named.

T1: GRK1 (rhodopsin kinase) (bovine (endogenous in ROS), UniProt P28327 1-561)
T1 sequence (looked up): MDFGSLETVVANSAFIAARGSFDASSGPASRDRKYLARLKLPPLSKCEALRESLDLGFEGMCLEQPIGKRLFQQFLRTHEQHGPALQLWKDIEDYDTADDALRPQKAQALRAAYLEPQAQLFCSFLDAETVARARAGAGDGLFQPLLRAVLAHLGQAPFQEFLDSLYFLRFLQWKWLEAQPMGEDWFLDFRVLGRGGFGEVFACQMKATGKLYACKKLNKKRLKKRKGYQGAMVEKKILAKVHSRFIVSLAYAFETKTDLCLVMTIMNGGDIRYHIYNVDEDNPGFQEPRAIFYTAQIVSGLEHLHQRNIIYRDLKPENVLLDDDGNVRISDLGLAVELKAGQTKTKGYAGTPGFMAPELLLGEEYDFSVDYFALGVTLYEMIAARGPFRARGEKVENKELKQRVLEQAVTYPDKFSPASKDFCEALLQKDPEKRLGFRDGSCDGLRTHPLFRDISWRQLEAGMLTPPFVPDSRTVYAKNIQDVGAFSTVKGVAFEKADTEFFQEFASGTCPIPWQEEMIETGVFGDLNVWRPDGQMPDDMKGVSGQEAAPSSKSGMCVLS

T2: Recombinant myristoylated bovine recoverin (reduced monomer) (bovine, UniProt P21457 2-202, N-terminal myristoyl group (degree of myristoylation more than 95%))
T2 construct: recoverin, bovine, recombinant wild type, myristoylated, C39 thiol reduced; Myristoylation implies that the initiator Met is removed and Gly2 carries the myristoyl group (surmised); also called RmRec; reduced monomer of recombinant wild type recoverin; source: recombinant, prepared according to previously published procedure (Zernii et al., 2011)
T2 sequence: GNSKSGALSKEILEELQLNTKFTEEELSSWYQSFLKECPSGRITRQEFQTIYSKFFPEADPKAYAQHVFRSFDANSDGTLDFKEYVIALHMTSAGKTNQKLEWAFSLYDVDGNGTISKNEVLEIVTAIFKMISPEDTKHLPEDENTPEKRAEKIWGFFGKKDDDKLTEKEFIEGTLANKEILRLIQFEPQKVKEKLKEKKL

T3: Oxidized monomer of recombinant wild type recoverin (bovine, UniProt P21457 2-202, N-terminal myristoyl group; C39 thiol oxidized (sulfenic/sulfinic acid; Figure 9 legend: C39 converted into sulfinic acid))
T3 construct: recoverin, bovine, recombinant wild type, myristoylated, monomer with oxidized C39; also called OmRec; thiol-oxidized monomer of recoverin; source: prepared from RmRec by incubation with 0.005% H2O2 at 30°C for 5 h, separated by gel-filtration (Superdex 75)
T3 sequence: T2 sequence

B1: Recoverin mutant C39D (natural protein, bovine)
chain: T2 sequence with C38D
modifications: N-terminal myristoyl group (degree of myristoylation more than 95%)
B2: N-terminal fragment of GRK1 (amino acids M1-S25) fused with glutathione-S-transferase (domain or fragment, UniProt P28327 1-25, looked up)
chain: MDFGSLETVVANSAFIAARGSFDAS
notes: GRK1 (rhodopsin kinase), fragment M1-S25; also called 1-25GRK1; 1-25RK; source: obtained according to previously published procedure (Grigoriev et al., 2012)
B3: N-terminal domain of GRK1 (amino acids Met1-Gly183) fused with glutathione-S-transferase (domain or fragment, UniProt P28327 1-183, looked up)
chain: MDFGSLETVVANSAFIAARGSFDASSGPASRDRKYLARLKLPPLSKCEALRESLDLGFEGMCLEQPIGKRLFQQFLRTHEQHGPALQLWKDIEDYDTADDALRPQKAQALRAAYLEPQAQLFCSFLDAETVARARAGAGDGLFQPLLRAVLAHLGQAPFQEFLDSLYFLRFLQWKWLEAQPMG
notes: GRK1 (rhodopsin kinase), N-terminal domain, amino acids Met1-Gly183; also called N-GRK1; N-terminal domain of rhodopsin kinase; source: obtained according to previously published procedure (Grigoriev et al., 2012)

Tests used:
[1] = target: GRK1 (rhodopsin kinase) (bovine (endogenous in ROS)) (UniProt P28327)
[2] = target: N-terminal domain of GRK1 (amino acids Met1-Gly183) fused with glutathione-S-transferase (UniProt P28327); assay: SPR; GST-fused N-GRK1 or 1-25GRK1 immobilised by amine coupling on ProteOn GLH chip; recoverin forms 1-40 uM as analyte; 25°C; 10 mM HEPES, 150 mM NaCl, 0.05% TWEEN 20, pH 7.4, 1 mM CaCl2, 2 mM MgCl2; global fit to heterogeneous ligand model
[3] = target: N-terminal fragment of GRK1 (amino acids M1-S25) fused with glutathione-S-transferase (UniProt P28327); assay: as above
GRK1 (rhodopsin kinase) = target: T1, GRK1 (rhodopsin kinase); assay: cell-based or functional assay
[4] = target: T2, Recombinant myristoylated bovine …; assay: SPR; GST-fused N-GRK1 or 1-25GRK1 immobilised by amine coupling on ProteOn GLH chip; recoverin forms 1-40 uM as analyte; 25°C; 10 mM HEPES, 150 mM NaCl, 0.05% TWEEN 20, pH 7.4, 1 mM CaCl2, 2 mM MgCl2; global fit to heterogeneous ligand model; conditions: both partners purified
Recoverin mutant C39D = target: B1; assay: as above; conditions: both partners purified
[5] = target: T3, Oxidized monomer of recombinant wild …; assay: as above; conditions: both partners purified

| Kd [4] [µM] | Kd (Recoverin mutant C39D) [µM] | Kd [5] [µM] | Molecule | also measured |
| --- | --- | --- | --- | --- |
|  |  |  | Disulfide dimer of recombinant wild type recoverin (from UniProt P21457 2-202) (complex) | inhibition of GRK1 in rhodopsin phosphorylation assay, 20 uM dRec, 0.01 uM free Ca2+ [1]: 40%; inhibition of GRK1 in rhodopsin phosphorylation assay, 20 uM dRec, 200 uM free Ca2+ [1]: 70%; Kd [2]: 31.3 µM; Kd [3]: 31.2 µM |
|  |  |  | B1 | inhibition of GRK1 in rhodopsin phosphorylation assay, 40 uM C39D, 200 uM free Ca2+; decline of inhibitory efficiency against RmRec (GRK1 (rhodopsin kinase)): ~2 fold |
| 10.5 | 31.3 | 16 | B2 |  |
| 5.35 | 50.2 | 31.3 | B3 |  |
